Results reported in a protein production outcome set (Wang et al. 2014).

Assay: label from the status in PepcDB records
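Note: failed if final PepcDB status was selected cloned or expressed and not failed if soluble or beyond.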

GKKDKEKIIDDFKVAVVTQPLSENKVQYNMVEEMAKEYEEENKIDKDKDGQTKVKQTIKHVVLPENFTSNIDSAINKIVKLADDKEVQAIVVSTDQAGLLPALQKVKEKRPEIITISAPMGDDKNQLSQFVDVNLGVSAEERGKVLAERSKEMGAKAFIHYASTDDLKDVNIAKRLEMIKETCKNIGLPFVQVNTPNINTEEDKNKVKQFLNEDIEKQVKKYGKDINVFGVNEYMDEVILTKALELKYIVAEQSNPSPIQTYPSVMGLKISEKDAQNYDKINDMISEKAKAFGMSNRLGGYPMPMDAFLPSLAIYLATEMVKQDLTQEDVCDPDYLEAFTELRFGIGSEFTPLTEVLYNYQSVILSQLIY
protein production: not failed

MGQSLPLLIRLIVVIWLTISMVTACPRAPTHLNHGRRTRGDNGYKLIVADGPNGYVPGKTYNLLLLGSRTHLKVQHFTHFTITAEAHTGARRPQAASPRRVGRFQLFSDSLTQFNDRCVNTVSEADDLPKTEVQVMWVAPESGSGCVSLSAMVYEGPRAWFADDGNLSTVICERKPDAAAAQKECCACDEAKYSFVFEGIWSNETHPKDYPFAIWLTHFSDVIGASHESNFSFWGENHIATAGFRSLAEWGSPAALETELRANGPKLRTLIKAAGLWYPNVNQNTSSKFRVDRKHPKVSLVSMFGPSPDWVVGISGLDLCTEDCSWKESMDFDLFPWDAGTDSGISYMSPNSETQPPERMYRITTMYPEDPRAPFYNPKSREMTPLAKLYLRREKIVSRNCDDEFLQALQLEVSDDAEEQDTRAECRVGDYSAWSPCSVSCGKGIRMRSRQYLYPAAADQNKCARQLVAKEMCVAAIPECADGPAQSKDRDDDEGENLANSQSLVGSNGEGAGLCKTSPWSVWSECSASCGIGITMRTRTFVNHLGRKRCPHITIVEKNKCMRPDCTYEQVELPDPQCPTSQWSDWSPCSSTCGRGVTIRTRLLLLENGPDKESCTQRMELHQQKECVNPIDCHINAEQAKDICVQAPDPGPCRGTYMRYAYDPQNQHCYSFTYGGCRGNRNNFLTENDCLNTCNVLRSPYSSRVDQPRACVLSDWSVWSPCSVSCGVGVSESRRYVVTEPQNGGQPCSKRLVKSRSCAMPAC
protein production: failed

MERAAFGKLVQALRREHRDEKGRVWTQEVLAERTQLPKRTIERIENGSLAHLDADILLRLADALELTIGERREFFFAATGIIEQKSATYKRSPEESLQYLIDMIRNMNVPAFVTDQYVNIIAANMITIRFFNIPMELIETAPLLPHGYNLMRVVFGTEYDFRRVVGTMWDEVARHNMQLFRAISLRVRADGYFVELLDNLMQYREFKRFWERAHLETEDTSAENFWYQYTHPVYGLLSYVSSRSQIPTSMGLLSMHTYIPLSPATTDLFAKLSTVANQDVIRLAPWPRSNG
protein production: not failed

KVVLYARVSSKQKDELVNQVKYLEEQVKEYDLVITDIGSGLNMKRKGFLKLLRMILNNEVSRVVIAYPDRLVRFGFEILEETCKAHGCEIVVLNQEEKEEELVEDLISVLVSFSEKLHGMRSHEYEKVKKCAEELKN
protein production: failed

MSAHRPAAATPAAAAPSKRERFLSLDVFRGLTIFLMILVNTAGPGAQAYAQLTHAAWFGFTLADLVFPSFLFAVGSAMSFALATNTPHLQFLGRVSRRAALILLCGVLMYWFPFFHLQPDGGWAFTTVDQLRLTCVLQRIGLCYLAAALLVRYLPPRGIAPVCLALLLGYWALLYAFGQPGAELSKTGNAGTRLDLWLYGRDHLYRKDGGFDPEGLLGTLSATVNVLAGYLCGRFLQRHGKTIASTRSLLLAGAGLVLLALLWAPAWPLSKKLWSGSFVACTVGLDLLALGALVYLLELRGWTGGSGFFTVLGRNPLAIYLFSELFVVVLRLIPAGSSGLDLYAWAGIGVFQTIAPGPLGSLLCALSYTLMCCAVGWWMDRRRWYLRL
protein production: failed

MTIAQEPTALNFECETGNYHTFCPISCVAWLYQKIEDSFFLVIGTKTCGYFLQNAMGVMIFAEPRYAMAELEEGDISAQLNDYAELKRLCEQIKRDRNPSVIVWIGTCTTEIIKMDLEGLAPKLEGEIGIPIVVARANGLDYAFTQGEDTVLAAMAHRCPDKAPVAEAEKNLEHHHHHH
protein production: not failed

MVRVPLTAEELERGQRLGELLRSARGDMSMVTVAFDAGISVETLRKIETGRIATPAFFTIAAVARVLDLSLDDVAAVVTFGPVSTS
protein production: not failed

MSEQQHVRADGTVTFLPHRLNRHPVVVRGLTADELWICCGLSGAAGLLVGAPLSWVFRTIAIAPTFVVLGVALGVFIGGGILRRLKRGRPDTWLYRQLQWRIATGHPLMAGWVGGHVLISRSGFWSTRRSMR
protein production: failed
